The target of test [1] is His6-SUMO-LaM8-LaM4 (llama). The experiment in a line: BLI; His-SUMO-tandem nanobody loaded on Ni-NTA biosensors; mCherry or DsRed in solution; 20 mM HEPES pH 7.4, 150 mM NaCl, 0.005% Tween-20; association 600 s, dissociation 600 s; 2:1 heterogeneous ligand fit; DsRed concentration calculated as a monomer.
For test [2], the target named is His6-SUMO-LaM1-LaM8 (llama). Described as above.

DsRed, sequence (Q9U6Y8 whole entry): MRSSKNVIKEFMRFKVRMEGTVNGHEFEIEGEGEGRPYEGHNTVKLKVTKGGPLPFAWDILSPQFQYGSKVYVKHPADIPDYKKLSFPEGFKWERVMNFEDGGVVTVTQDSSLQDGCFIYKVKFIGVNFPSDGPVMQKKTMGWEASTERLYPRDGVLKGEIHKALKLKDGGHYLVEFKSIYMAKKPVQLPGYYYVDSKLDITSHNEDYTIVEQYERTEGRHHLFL

Take “DsRed (from UniProt Q9U6Y8 1-225) (natural protein)”: in test [1], the KD2 is 4.12 nM, the KD (site 1 of the 2:1 heterogeneous ligand fit) was 2.64 nM, the kdis1 was 0.000232 s⁻¹ and the kdis2 was 8.2e-05 s⁻¹. Also, in test [1], the kon2 is 19900 M⁻¹ s⁻¹ and the kon (site 1 of the 2:1 heterogeneous ligand fit) was 88100 M⁻¹ s⁻¹.

On to mCherry, for which, in test [1], the KD2 is 1.29 nM, the KD (site 1 of the 2:1 heterogeneous ligand fit) was 1.38 nM, the kdis1 was 0.000239 s⁻¹ and the kdis2 was 6.51e-05 s⁻¹. In test [1], the kon2 is 50600 M⁻¹ s⁻¹ and the kon (site 1 of the 2:1 heterogeneous ligand fit) is 173000 M⁻¹ s⁻¹. In test [2], the KD2 was less than 1 pM, the KD (site 1 of the 2:1 heterogeneous ligand fit) is 1.87 nM, the kdis1 is 0.000552 s⁻¹ and the kdis2 is less than 1e-07 s⁻¹. Also, in test [2], the kon2 was 46700 M⁻¹ s⁻¹ and the kon (site 1 of the 2:1 heterogeneous ligand fit) was 296000 M⁻¹ s⁻¹.

Source of the values: PMC10138814.
